From article PMC3021526, “Rise and Fall of an Anti-MUC1 Specific Antibody” (PLoS ONE, 2011) come the findings set out here.

Assay [1] concerns the target synthetic MUC1 glycopeptide APDT(GalNAc)… (human). The assay is described as follows: SPR; IIB6 on the MUC1 glycopeptide; data not shown. (In general: Surface plasmon resonance follows binding to a sensor surface in real time, without labels.)
Assay [2] concerns the target human anti-MUC1 scFv IIB6 (human). The assay is described as follows: SEC; 80 µg IMAC purified scFv on Superdex200 10/300, PBS, 0.5 mL/min; monomer to dimer.
In assay [3] the target is T1, MUC1 15 aa peptide with cysteine (…-C) (human).
T1 sequence (peptide): APDTRPAPGSTAPPAC
The assay is described as follows: SPR; Biacore 2000; about 50 RU MUC1 15 aa peptide with cysteine coupled on a CM5 chip (NHS/EDC, PDEA); serial dilutions of scFv (0-400 nM) at 50 µL/min; 1:1 Langmuir separate fitting; IIB6 by steady-state model.

For assay [4], the target named is T2, MUC1 15 aa peptide with cysteine (APDTRPAPGSTAPPA-C) (Homo sapiens (synthetic peptide)).
T2 construct: 15 residues of the tandem repeat (VNTR) of human MUC1; added C-terminal cysteine, used for coupling to the chip; also called MUC1 peptide; MUC1 peptide antigen
T2 chain: APDTRPAPGSTAPPAC
Described as above. The conditions noted are these: both partners purified.

The target in assay [5] is MUC1 on MCF-7 cells (human (endogenous in MCF-7)) (UniProt P15941). The assay is described as follows: flow cytometry on cells; internalisation assay: MCF-7 cells with 10 µg/ml antibody on ice 1 h, washed, 1 h at 4°C; surface antibody detected by PE-conjugated mouse anti-human IgG. Background: Flow cytometry measures light scatter and fluorescence of single cells or particles in a stream.
Sequence of MUC1 on MCF-7 cells (human (endogenous in MCF-7)) (P15941 24-1255): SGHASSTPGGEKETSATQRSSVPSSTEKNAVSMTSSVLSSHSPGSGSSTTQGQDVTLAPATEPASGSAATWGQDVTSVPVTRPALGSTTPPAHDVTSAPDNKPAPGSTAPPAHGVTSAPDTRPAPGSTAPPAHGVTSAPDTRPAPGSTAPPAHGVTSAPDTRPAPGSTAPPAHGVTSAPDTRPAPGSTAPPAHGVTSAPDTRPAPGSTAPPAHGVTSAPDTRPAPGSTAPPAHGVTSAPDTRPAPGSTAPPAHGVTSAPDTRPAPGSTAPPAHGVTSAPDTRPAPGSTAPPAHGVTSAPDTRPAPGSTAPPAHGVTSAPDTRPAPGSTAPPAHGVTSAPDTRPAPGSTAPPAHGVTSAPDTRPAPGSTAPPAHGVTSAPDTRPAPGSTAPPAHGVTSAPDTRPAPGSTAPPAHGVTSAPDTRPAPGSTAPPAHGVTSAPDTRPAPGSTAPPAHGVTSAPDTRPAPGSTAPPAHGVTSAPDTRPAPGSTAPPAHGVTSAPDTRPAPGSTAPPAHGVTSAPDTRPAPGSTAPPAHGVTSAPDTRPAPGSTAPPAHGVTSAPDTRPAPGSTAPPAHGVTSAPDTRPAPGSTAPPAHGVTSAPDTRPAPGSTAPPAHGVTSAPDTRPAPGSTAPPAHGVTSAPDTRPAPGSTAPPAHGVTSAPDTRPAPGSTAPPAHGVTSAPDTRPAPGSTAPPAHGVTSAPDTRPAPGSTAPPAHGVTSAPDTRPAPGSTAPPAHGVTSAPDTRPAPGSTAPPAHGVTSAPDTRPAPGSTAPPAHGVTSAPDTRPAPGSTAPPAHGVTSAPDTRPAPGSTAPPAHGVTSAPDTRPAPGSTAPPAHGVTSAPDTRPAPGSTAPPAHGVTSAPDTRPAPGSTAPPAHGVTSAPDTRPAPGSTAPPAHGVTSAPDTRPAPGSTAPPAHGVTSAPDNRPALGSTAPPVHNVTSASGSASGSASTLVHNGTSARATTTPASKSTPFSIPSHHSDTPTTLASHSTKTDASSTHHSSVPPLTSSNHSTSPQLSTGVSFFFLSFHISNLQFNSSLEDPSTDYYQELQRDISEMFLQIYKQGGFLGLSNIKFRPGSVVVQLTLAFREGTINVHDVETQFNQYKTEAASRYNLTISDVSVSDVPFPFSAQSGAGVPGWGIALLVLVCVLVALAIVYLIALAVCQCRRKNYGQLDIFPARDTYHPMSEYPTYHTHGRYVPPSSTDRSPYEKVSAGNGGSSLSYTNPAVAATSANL

The target of assay [6] is T3, MUC1 32 aa peptide with a C-terminal cysteine (APDTRPAPGSTAPPAHGVTSAPDTRPAPGSTA-C) (Homo sapiens (synthetic peptide)).
T3 construct: 32 residues of the tandem repeats (VNTR) of human MUC1; added C-terminal cysteine; also called MUC1 peptide antigen (32mer cys); MUC1 32mer Cys peptide
T3 chain: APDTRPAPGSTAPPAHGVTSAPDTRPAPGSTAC
The assay is described as follows: ELISA; MUC1 32 aa peptide with C-terminal cysteine coated in PBS over night at 4°C; dilution series of purified scFv, scFv-Fc or IgG in 2% M-PBST, 1.5 h at RT; scFv detected by 9E10 (c-myc), scFv-Fc and IgG by anti-human Fc HRP. The conditions noted are these: both partners purified.

The target of assay [7] is affinity matured anti-MUC1 scFv HT220-M-G8 (human). The assay is described as follows: SEC; 80 µg IMAC purified scFv on Superdex200 10/300, PBS, 0.5 mL/min; monomer to dimer.

Residue numbers refer to the chain shown, from its start.

B1: human anti-MUC1 scFv IIB6 (scFv, V domains shown)
VH: QMQLVQSGAEVKKPGASVKVSCKASGYTFTGHYMHWVRQAPGQGLEWMGWIDPVTGGTKYAQNFQGWVTMTRDTSIRTAYMELSRLRSDDTAMYYCAREVTGDRGQFDKWGQGTLVTVAS
VL: QSVLTQPPSVSVAPGKTARITCGGNNIGSKSVHWYQQKPGQAPVLVIYYDSDRPSGIPERFSGSNSGNTATLTISRVEAGDEADYYCQVWDSSSDWVFGGGTKLTVL
By Kd is commonly meant the equilibrium constant for the complex coming apart. Lower therefore signals tighter binding. As usually defined, the stoichiometry N is a count of units in the complex or per binding partner. Turning to B1, the dissociation constant Kd was determined as 230 nM in assay [1] and 310 nM in assay [3]. For the same molecule, the percent of the scFv dimerised in assay [2] came out at 50%. This molecule returned a stoichiometry N in assay [2] of 2.

B2: affinity matured anti-MUC1 scFv HT186-D11 (scFv, V domains shown)
VH: B1 VH with G8E, V11L, T28S, M81L
VL: B1 VL with V44A, D50G, D52N
notes: From IIB6 by error-prone PCR (library A), off-rate panning; source: E. coli, IMAC purified; also culture supernatant from microtitre plates; not shown: c-myc, C-terminal, kept
As a reminder, the koff is the first-order rate constant of dissociation. As a reminder, the kon is the rate constant with which the complex forms. Low values mean slower complex formation, high ones faster complex formation. Turning to B2, in assay [4], the Kd turned out to be 0.57 nM, the off-rate (koff) amounted to 7.2e-05 s⁻¹ and the kon stood at 38000 M⁻¹ s⁻¹.

B3: affinity matured anti-MUC1 scFv HT200-3A-C1 (scFv, V domains shown)
VH: B1 VH
VL: B1 VL with V12M, K16E, Y49N, N68K, S94I
notes: one potential N-glycosylation site in CDR2; From IIB6 by nested error-prone PCR (library B), panning in solution; source: E. coli, IMAC purified; also culture supernatant from microtitre plates; not shown: c-myc, C-terminal, kept
With B3, in assay [4], the affinity, expressed as Kd, was 2.1 nM; the off-rate constant (koff) is 0.0001 s⁻¹; the kon was determined as 49000 M⁻¹ s⁻¹.

B4: affinity matured anti-MUC1 scFv HT186-G2 (scFv, V domains shown)
VH: B1 VH with Q1R, V20L, T30A, Q43R
VL: B1 VL with D50G, P54S
notes: as for B2
As for B4, in assay [4], the dissociation constant (Kd) is not above 1 nM, the dissociation rate constant (koff) is not above 1e-05 s⁻¹ and the kon is 72000 M⁻¹ s⁻¹.

B5: HT186-D11 human IgG (antibody, V domains shown)
VH: B1 VH with G8E, V11L, T28S, M81L
VL: B1 VL with V44A, D50G, D52N
As for B5, the percentage of MUC1 positive cells (4°C) in assay [5] came out at 68%.

B6: affinity matured anti-MUC1 scFv HT186-B7 (scFv, V domains shown)
VH: B1 VH
VL: B1 VL with V44A, D50G, D52Y, S66Y, S75R
notes: as for B2
In assay [4], B6 gave a Kd of 1.3 nM, a koff of 2.1e-05 s⁻¹ and an association rate constant (kon) of 35000 M⁻¹ s⁻¹.

B7: HT186-G2 human IgG (antibody, V domains shown)
VH: B1 VH with Q1R, V20L, T30A, Q43R
VL: B1 VL with D50G, P54S
notes: as the VH of m4; human IgG heavy-chain constant region from the expression vector CHK622-08; as the VL of m4; C lambda derived from the vector CHL558-0; VH and VL ordered as synthetic genes, codon optimised for rat; also called HT186-G2 IgG
B7: in assay [6], the “fold decrease of affinity against the scFv-Fc format” value is approximately 10 fold.

B8: affinity matured anti-MUC1 scFv HT220-M-D1 (scFv, V domains shown)
VH: B1 VH with Q3L, V11A, S88P
VL: B1 VL with A13V, T21I, Y49N, D50N, T69M, A83S, K103R, V106I
notes: one potential N-glycosylation site in CDR2; source: E. coli, IMAC purified; also culture supernatant from microtitre plates; not shown: c-myc, C-terminal, kept
In assay [4], B8 returned a Kd of 3.7 nM, an off-rate (koff) of 0.00011 s⁻¹ and an on-rate constant (kon) of 29000 M⁻¹ s⁻¹.

B9: affinity matured anti-MUC1 scFv HT220-M-G8 (scFv, V domains shown)
VH: B1 VH with K12M, T28S, Q39H, G57S, R77S
VL: B1 VL with D50G, S66T, T69M
notes: source: E. coli, IMAC purified; also culture supernatant from microtitre plates; not shown: c-myc, C-terminal, kept
As for B9, in assay [7], the percent of the scFv dimerised was found to be 50% and the stoichiometry N amounted to 2. Besides, in assay [4], the Kd is 4.4 nM, the koff amounted to 0.00022 s⁻¹ and the on-rate constant (kon) is 50000 M⁻¹ s⁻¹.
